In the MegaScale stability set (Tsuboyama et al. 2023):

B1: 1ZHC (parent)
chain: HEFRDEISVLKANNPHFDKIFEKHNQLDDDIKTAEQQNASDAEVSHMKKQKLKLKDEIHSMIIEYREK

Variants of: B1
Experiment: folding stability dG (cDNA display proteolysis); higher = more stable
Settings: PBS, room temperature

Folding stability dG [kJ/mol]: each site, then its substitutions
I58: F 1.27 | C 0.0628 | L 2.08 | V -2.51 | W -2.28 | H -2.63 | R -2.23 | M 0.795
S60: C 4.93 | I 2.92 | M 5.4 | A 6.19 | F 3 | H 3.31 | E 1.95 | D 2.24 | L 4.15 | K 6.33 | G 1.51 | N 3.9 | Q 5.04
K49: G 2.06 | V 3.63 | Q 5.31 | F 1.84 | S 3.69 | Y 5.02 | E 3.85 | W 2.33 | R 4.3 | L 3.97 | A 5.41 | M 4.98 | H 2.2 | C 4.66 | I 4.94 | D 3.14 | T 4.06 | N 2.46
A42: S 1.5 | Q 3 | R -0.331 | I 2.39 | L 1.94 | M 2.26 | C 2.85 | T 1.84 | F 0.272 | P 1.87 | D 4.14 | Y 2.66 | W 0.791 | K 2.65 | G 0.31 | E 5.26 | H 1.81 | V 2.77 | N 1.81
S45: C 4.82 | L 2.19 | Y 3.2 | V 1.8 | N 4.38 | M 4.22 | D 3.92 | W 3.49 | T 5.61 | H 3.54 | G 1.46 | F 2.62 | I 3.3 | A 4.57 | R 3.65 | K 4.08 | E 4.5
H59: Q 3.47 | S 2.61 | T 4.43 | Y 6.75 | N 4.17 | D 4.67 | R 4.36 | E 5.07 | V 5.45 | L 8.5 | F 5.98 | K 1.67 | M 8.03 | I 7.67 | W 7.65 | A 2.2
D41: H 3.64 | V 3.24 | I 3.98 | K 3.65 | Y 3.68 | C 3.23 | M 3.02 | W 3.83 | A 5.16 | P 5.37 | N 2.23 | L 3.66 | F 3.85 | S 4.32 | T 3.08 | Q 4.07 | R 3.18 | G 1.72 | E 5.57
K55: F 6.89 | W 12.3 | I 4.57 | Y 6.14 | R 6.3 | S 4.78 | H 5.3 | C 8.98 | T 1.14 | L 6.08 | D 1.5 | E 3.87 | M 7.18 | A 6.97 | G 3.2 | N 3.04 | V 3.17 | Q 5.38
D56: G 4.06 | K 5.11 | Y 6.26 | I 5.25 | S 2.6 | C 5.71 | E 5.41 | M 6.57 | L 6.75 | W 5.8 | R 5.08 | H 4.49 | N 4.49 | V 4.28 | T 3.51 | A 5.33 | Q 6.33 | F 4.95
E43: F 4.5 | K 5.19 | L 4.76 | G -1.26 | R 4.53 | T 3.19 | M 4.69 | A 3.18 | Q 2.8 | D 5.26 | W 5.29 | V 5.12 | H 2.6 | I 5.32 | S 1.84 | Y 5 | N 1.25 | C 4.23
S40: W -3.66 | T -0.31 | C 1.47 | L 1.64 | V -2.14 | R 1.05 | M -0.0126 | E 1.96 | K 0.435 | A 1.07 | D 3.24 | Q 0.163 | H 1.07 | P 3.58 | Y -0.987 | G 2.59 | N 4.68 | I -0.979 | F 0.544
K48: W 0.494 | Y 2.58 | Q 0.996 | I 2.38 | E -3.42 | V 1.75 | A 0.36 | L 1.67 | N -3.53 | R 1.67 | T 0.134 | C 1.76 | S -3.96 | M 3.17 | F 1.11
K53: P -1.05 | E 2.27 | W 2.52 | D -0.163 | F 1.09 | C 3.68 | Q 2.22 | Y 1.26 | H 1.11 | S 1.47 | R 4.16 | A 4.69 | L 4.83 | I 2.97 | N -0.0628 | T 2.76 | V 3.39 | M 4.39
Q50: Y 2.13 | S -1.25 | K 0.92 | A 1.99 | G -1.07 | E 4.08 | R 2.69 | T 1.81 | V 0.28 | L 6.51 | I 3.17 | N -0.159 | F 3.83 | W 3.31 | H 2 | C 4.69 | M 4.2
L54: I -2.62 | C -2.07 | W -3.82 | M -2.71 | Y 0.69
K51: Q 3.2 | E -3.26 | Y 6.28 | V 3.02 | F 6.9 | A 3.83 | N -2.86 | M 6.36 | L 9.89 | R 5.41 | C 3.58 | W 6.59 | G -2.64 | I 5.46 | S 1.69 | H 1.25
M47: I -1.64 | A -4.1 | W 2.41 | V -3.64 | L 6.64 | Y -1.72 | C -0.326
H46: I 5.15 | P -1.16 | T 3.72 | M 4.59 | Q 4.87 | L 5.7 | D 3.07 | A 6.27 | S 5.34 | V 2.75 | N 4.77 | C 4.56 | K 6.1 | R 8.25 | G 3.28 | E 6.17 | Y 4.98 | F 4.28 | W 5.38
L52: C 2.97 | S 3.4 | T 1.2 | H 2.07 | F 2.46 | M 5.37 | D 4.28 | A 4.54 | Y 1.5 | I 3.82 | Q 5.34 | G -0.264 | V 1.38 | K 3.97 | E 4.9 | N 3.98 | W 1.65
E57: F -2.13 | K 0.887 | I 3.64 | H -4.16 | D -3.35 | R -0.142 | A 2.94 | W 2.52 | L 4.15 | S -0.431 | Y 2.18 | Q 3.01 | V 1.2 | C 4.01 | T 2.82 | M 4.85
A39: Q 1.08 | M 3.92 | R 5.58 | L 5.7 | W 5.42 | S 1.5 | V 4.13 | Y 3.47 | P 0.548 | N 0.326 | T 0.377
V44: M 2.08 | G 2.6 | L 5.72 | I 6.56 | C -1.96 | S -3.79 | Y -2.17 | R -1.23 | T -1.29 | K -2.78
